Positions count from the first letter of the chain named. Names and notes keep the numbering of the source. “Also recorded” adds a separate entry of the source.

Consider eleven molecules from patent US9631002B2, “Methods and compositions for producing active vitamin K-dependent proteins” (The University of North Carolina at Chapel Hill, priority 2010, dated 2017).

In data set [1] the test system is FIXgla-PC carboxylation in HEK 293 cells. The class given is cell-based, human. The note with it: 11 μM vitamin K or 5 μM KO, HEK293.
Data set [2] deals with carboxylation of FIXgla-PC reporter protein in HEK293 cells (reduction of KO to vitamin K). Description: Cell-based VKOR activity assay: recombinant VKOR/VKORH expressed in FIXgla-PC/HEK293 cells with KO and warfarin, carboxylated reporter by ELISA. Also noted: species or system human. The conditions noted are these: for carboxylation activity of modified human VKOR: FIGS. 23, 33; for Relative activity: Human Y139F: VKOR of the organism compared to human Y139F VKOR, cell-based carboxylation; for ability of human VKOR with replaced residues 122-139 to use KO to carboxylate the reporter: 2 μM warfarin, 48 h, HEK293 (FIG. 11C). In general terms: An ELISA detects its analyte on a solid surface through an enzyme-linked reagent.

In data set [3] the test system is carboxylation of FIXgla-PC reporter protein in AV12 cells (reduction of vitamin K to KH2). Description: Cell-based VKOR activity assay in FIXgla-PC/AV12 or FIXgla-PC/VKOR-Y139F/AV12 cells, carboxylated reporter by ELISA. Also noted: species or system Syrian golden hamster. The note with it: for ability of human VKOR with replaced residues 122-139 to use vitamin K to carboxylate the reporter: 11 μM K, 2 μM warfarin, 48 h, FIXgla-PC AV-12 (FIG. 11B).

As to `CC(=CCC12OC1(C)C(=O)c1ccccc1C2=O)CCCC(C)CCCC(C)CCCC(C)C` (centres unmarked) [KO, Vitamin K1 2,3-epoxide], the “increase in secretion of carboxylated reporter protein compared to no additions” value in data set [1] is given as “approximately 25 fold”.

B1: Human VKOR with amino acids 44-50 substituted with amino acids DYKDDDDK (Flag tag): human VKOR cysteine loop 44-50 replaced with FLAG tag, SEQ ID NO:34 (protein)
chain: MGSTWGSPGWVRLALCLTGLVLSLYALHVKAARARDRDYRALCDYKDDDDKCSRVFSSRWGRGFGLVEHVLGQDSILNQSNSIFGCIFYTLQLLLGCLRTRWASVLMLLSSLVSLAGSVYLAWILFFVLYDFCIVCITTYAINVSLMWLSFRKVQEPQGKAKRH
modifications: Human VKOR with amino acids 44-50 substituted with amino acids DYKDDDDK (Flag tag)
With B1, the “carboxylation activity of modified human VKOR” value in data set [2] is given as “increased activity”.

B2: Takifugu: Takifugu VKOR NP_001027838, SEQ ID NO:7, Y138F (protein)
chain: MAIPTWERKVRIFLCVFGLLLSVYALHVELSRERNPDYRAMCDLGESVSCSKVFSSRWGRGFGLVQYFVDKDSPLNQPNSVLGIIFYTLQMCLGLSLSRKAALFLVFSSWVSVAGSLYLASILAFVLGDFCMVCVSTFLVNFVLLFTNLKRRRAIEGLKEKSG
modifications: Takifugu rubripes
On to B2, for which, in data set [2], the “Relative activity: Human Y139F” value is “Yes, greater”.

B3: VKOR-CM: human VKOR with R37G, R35G, R33G, K30L, G9R, S7R and G6R mutations, SEQ ID NO:35 (protein)
chain: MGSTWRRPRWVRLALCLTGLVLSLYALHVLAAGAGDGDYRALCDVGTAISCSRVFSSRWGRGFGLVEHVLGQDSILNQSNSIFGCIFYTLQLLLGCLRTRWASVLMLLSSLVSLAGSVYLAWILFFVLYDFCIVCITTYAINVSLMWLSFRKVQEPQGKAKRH
modifications: Human VKOR comprising an R37G mutation, an R35G mutation, an R33G mutation, a K30L mutation, a G9R mutation, an S7R mutation and a G6R mutation
As to B3, the “ability to carboxylate vitamin K dependent reporter protein relative to wild type / control VKOR” value in data set [2] (charge-mutated human VKOR (FIG. 32)) is “approximately fourfold; also recorded: about four times more active”.

B4: V45N: human VKOR comprising a V45N substitution introducing an additional glycosylation site, SEQ ID NO:25 (protein)
chain: B3 chain with R6G, R7S, R9G, L30K, G33R, G35R, G37R, V45N, C51A
modifications: Human VKOR with V45N mutation
Turning to B4, the “carboxylation activity of modified human VKOR” value in data set [2] is reported as “increased carboxylation activity”.

B5: Xenopus tropicalis: Xenopus VKOR NP_001006928, SEQ ID NO:8, Y138F (protein)
chain: MAVPGWERAVRLLLCGVGIALSVYAYHVETSRERDANYTALCDINPSISCSKVFTSRWGRGFGLVEQILGRQSFLNQPNSVFGILFYGLQVLLGFSGSVGAAAALLGTSLVSIAGSLYLAYILFYVLEDFCVICVTTFALNFCLLLLNLKRLASLRAPPKKQKNKRKKN
modifications: Xenopus (Silurana) tropicalis
For B5, in data set [2], the “Relative activity: Human Y139F” value was “Yes, greater”.

B6: AR-VKORH: Arabidopsis VKORH, NP_567988.1, SEQ ID NO:19 (protein, listed as Arabidopsis thaliana)
chain: MMARFVSVSSCQFHFGFREVSPPSVTSYPRRFEVSDRRFPAIPIKCSSSEPENGEDSAPSLSSSSSSSTSEVSTSNSSTYNWYTGIGGIGMLDTAYLTYLKVTGSDAFCPIGGGTCGDVLNSDYAVVFGVPLPVIGFVMYGVVTALSAELGEGNLPFGISKSNGRFALFGITTAMASASAYFLYILSTKLSGSSCLYCLVSAFLSFSLFFLSVKDVKLQEIQQVVGLQICLAIIVVASLTASYSTAQPIPSRSGDIELPYFRTEISSSSSPYAIALAKHLNSIGAKMYGAFWCSHCLEQKEMFGREAAKELNYVECFPDGYKKGTKILKACADAAIEGFPTWIINDKVLS
With B6, the “support of carboxylation of the reporter protein with KO as substrate” value in data set [2] (5 μM KO, 4 μM warfarin, 48 h (FIG. 15B)) is given as “only MT-VKORH supported carboxylation”. In addition, the “activity in reducing vitamin K to KH2 to support carboxylation” value in data set [3] (transient expression in FIXgla-PC/VKOR-Y139F/AV12, KO and warfarin (FIG. 19A)) is recorded as “no significant activity”.

B7: hVKOR DsbB: human VKOR with residues 122-139 replaced by bacterial DsbB 33-50, SEQ ID NO:32 (protein)
chain: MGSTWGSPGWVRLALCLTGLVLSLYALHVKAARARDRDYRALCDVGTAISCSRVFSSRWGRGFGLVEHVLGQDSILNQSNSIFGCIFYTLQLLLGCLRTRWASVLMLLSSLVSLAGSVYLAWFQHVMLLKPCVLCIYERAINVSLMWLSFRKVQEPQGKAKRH
modifications: Human VKOR with amino acids 122-139 substituted with amino acids 33-50 of DsbB enzyme (RefSeq accession no. ZP_03067529)
Consider B7, for which the “ability of human VKOR with replaced residues 122-139 to use KO to carboxylate the reporter” value in data set [2] (5 μM KO) is recorded as “only the human VKOR substituted with the M. tuberculosis domain functions as a VKOR”. Further, the “ability of human VKOR with replaced residues 122-139 to use vitamin K to carboxylate the reporter” value in data set [3] was “can utilize vitamin K to produce carboxylated reporter protein”.

B8: hVKOR Arabidopsis: human VKOR with residues 122-139 replaced by Arabidopsis VKOR 185-202, SEQ ID NO:30 (protein)
chain: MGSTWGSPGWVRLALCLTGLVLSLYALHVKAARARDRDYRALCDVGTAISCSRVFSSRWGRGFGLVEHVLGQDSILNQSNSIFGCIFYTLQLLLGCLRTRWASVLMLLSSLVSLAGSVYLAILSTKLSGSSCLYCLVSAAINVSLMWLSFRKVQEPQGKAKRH
modifications: Human VKOR with amino acids 122-139 substituted with amino acids 185-202 of A. thaliana VKOR (RefSeq accession no. NP_567988)
In the case of B8, the “ability of human VKOR with replaced residues 122-139 to use KO to carboxylate the reporter” value in data set [2] (5 μM KO) is given as “only the human VKOR substituted with the M. tuberculosis domain functions as a VKOR”. The “ability of human VKOR with replaced residues 122-139 to use vitamin K to carboxylate the reporter” value in data set [3] is listed as “can utilize vitamin K to produce carboxylated reporter protein”.

B9: Amphioxus: Amphioxus VKOR, SEQ ID NO:11, Y144F (protein, listed as Branchiostoma floridae)
chain: MAAGRSFRLPIWEILSRCMLCTAGLVLSGYAFYVETSKEADHSYTAMCDVSESVSCSKVFTSRFGRGFGLVEPILGADSPLNLPNSIFGLAFYIMQLCLGVVPGMSVSIVLLATSVLSCLGCVYLAYILYFILQDACIVCISTFVVNTFMLIVNIKRVLLQRKAILKKQQ
With B9, the “Relative activity: Human Y139F” value in data set [2] was “Yes, greater”.

B10: Trichoplax: Trichoplax VKOR XM_002107720.1, SEQ ID NO:15 (protein, listed as Trichoplax adhaerens)
chain: B9 chain with F144Y, F149L, I152V, I165L
B10: the “Relative activity: Human Y139F” value in data set [2] is listed as “No”.
